Laboratory results reported in article PMC4507770.

Target: GST–XJTGB3 fusion protein (BSMV Xinjiang strain TGB3) (barley stripe mosaic virus, Xinjiang strain)
Test: pull-down

“XJTGB1_(T395A/T401A) double mutant, C-terminal His-tagged (natural protein)” showed a TGB3 protein-binding efficiency compared with wt XJTGB1 of 40% and a percent less effective binding than wt XJTGB1 of 40 % less.
